Experimental data taken from patent publication US20240174741A1 (IMMUNOME, published 2024).

T1: IL-1α (human, UniProt P01583 1-271, limits assumed)
T1 sequence (looked up): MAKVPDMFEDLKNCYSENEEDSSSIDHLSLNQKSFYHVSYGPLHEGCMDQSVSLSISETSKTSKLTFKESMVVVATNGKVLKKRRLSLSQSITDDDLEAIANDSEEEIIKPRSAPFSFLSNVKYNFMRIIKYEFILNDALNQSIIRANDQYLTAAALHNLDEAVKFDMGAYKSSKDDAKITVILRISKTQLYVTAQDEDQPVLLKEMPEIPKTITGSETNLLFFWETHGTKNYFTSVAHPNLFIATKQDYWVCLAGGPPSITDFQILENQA

T2: IL-18 (human, UniProt Q14116 1-193, limits assumed)
T2 sequence (looked up): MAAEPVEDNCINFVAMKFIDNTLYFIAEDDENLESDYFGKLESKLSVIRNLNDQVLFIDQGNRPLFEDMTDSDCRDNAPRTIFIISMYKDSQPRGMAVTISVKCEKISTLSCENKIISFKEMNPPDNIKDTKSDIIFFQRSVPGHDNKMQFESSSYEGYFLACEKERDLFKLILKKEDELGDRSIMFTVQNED

T3: IL-36Ra (human, UniProt Q9UBH0 1-155, limits assumed)
T3 sequence (looked up): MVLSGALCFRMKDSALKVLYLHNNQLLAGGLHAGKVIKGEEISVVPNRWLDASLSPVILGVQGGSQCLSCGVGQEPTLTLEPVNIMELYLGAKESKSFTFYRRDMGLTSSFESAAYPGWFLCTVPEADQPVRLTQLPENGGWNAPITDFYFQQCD

T4: IL-36a (human, UniProt Q9UHA7 1-158, limits assumed)
T4 sequence (looked up): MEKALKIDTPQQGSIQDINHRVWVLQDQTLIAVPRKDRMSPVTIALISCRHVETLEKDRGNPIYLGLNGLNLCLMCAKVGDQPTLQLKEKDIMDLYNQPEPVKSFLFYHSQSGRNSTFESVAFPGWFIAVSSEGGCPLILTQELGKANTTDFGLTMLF

T5: IL-37 (human, UniProt Q9NZH6 1-218, limits assumed)
T5 sequence (looked up): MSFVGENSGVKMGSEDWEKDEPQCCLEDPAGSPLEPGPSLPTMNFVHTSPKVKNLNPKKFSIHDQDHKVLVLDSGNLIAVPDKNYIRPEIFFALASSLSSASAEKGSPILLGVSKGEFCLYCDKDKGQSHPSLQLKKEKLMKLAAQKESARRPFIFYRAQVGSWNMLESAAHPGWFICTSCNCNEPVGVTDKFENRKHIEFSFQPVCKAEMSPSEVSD

T6: IL-36b (human, UniProt Q9NZH7 1-164, limits assumed)
T6 sequence (looked up): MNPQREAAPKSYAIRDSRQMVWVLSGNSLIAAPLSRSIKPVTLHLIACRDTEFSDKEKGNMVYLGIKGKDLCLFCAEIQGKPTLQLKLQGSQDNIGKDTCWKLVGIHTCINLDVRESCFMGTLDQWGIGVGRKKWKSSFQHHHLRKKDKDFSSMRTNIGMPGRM

T7: IL-36g (human, UniProt Q9NZH8 1-169, limits assumed)
T7 sequence (looked up): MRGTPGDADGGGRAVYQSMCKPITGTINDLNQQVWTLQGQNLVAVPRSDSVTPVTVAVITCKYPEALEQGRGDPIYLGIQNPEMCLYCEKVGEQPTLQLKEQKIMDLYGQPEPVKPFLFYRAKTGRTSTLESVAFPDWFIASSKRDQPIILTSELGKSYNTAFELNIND

T8: IL-33 (human, UniProt O95760 1-270, limits assumed)
T8 sequence (looked up): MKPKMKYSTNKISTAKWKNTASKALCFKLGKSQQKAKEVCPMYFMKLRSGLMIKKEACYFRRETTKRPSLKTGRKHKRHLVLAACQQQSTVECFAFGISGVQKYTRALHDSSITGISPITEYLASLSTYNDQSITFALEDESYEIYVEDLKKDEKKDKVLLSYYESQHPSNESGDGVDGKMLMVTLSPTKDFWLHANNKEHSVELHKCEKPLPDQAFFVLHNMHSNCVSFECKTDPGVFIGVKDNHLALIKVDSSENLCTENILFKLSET

T9: human interleukin-38 (IL-38) (human, UniProt Q8WWZ1 1-152)
T9 construct: The Adipogen protein is called full length; also called IL1F10/IL38; IL1F10
T9 sequence (looked up): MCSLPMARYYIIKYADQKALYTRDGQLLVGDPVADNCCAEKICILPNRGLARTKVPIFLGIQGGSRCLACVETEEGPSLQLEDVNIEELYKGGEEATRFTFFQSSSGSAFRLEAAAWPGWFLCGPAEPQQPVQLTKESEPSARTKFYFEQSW


Legend:
IL-1α [1] = biological target: T1, IL-1α; test: CDI HuProt native protein microarray
Experimental: (§1) To confirm specificity to IL-38, several lead candidate antibodies (CD1-M3, CD1-M8, NZB-M8) were analyzed in a High-Spec Cross-reactivity Assay using native HuProt arrays (CDI Laboratories). […] of antibody was incubated overnight in a cold room, washed, and probed with anti-human secondary antibodies. Fluorescence intensity (F635) as an indicator of binding was measured for each spot. CDI software quantified the specificity of the antibody to each spot based on a Z-score. Z-score is defined as [F635−(Average F635 on array)]/(Standard deviation of F635 on array). S-score is defined as the difference between the Z-score of a given protein and the Z-score of the next highest protein.

IL-1β [2] = biological target: T10, IL-1β (human, UniProt P01584 1-269, limits assumed); test: CDI HuProt native protein microarray
Experimental: as §1

IL-1Ra [3] = biological target: T11, IL-1Ra (human, UniProt P18510 26-177, limits assumed); test: CDI HuProt native protein microarray
Experimental: as §1

IL-18 [4] = biological target: T2, IL-18; test: CDI HuProt native protein microarray
Experimental: as §1

IL-36Ra [5] = biological target: T3, IL-36Ra; test: CDI HuProt native protein microarray
Experimental: as §1

IL-36a [6] = biological target: T4, IL-36a; test: CDI HuProt native protein microarray
Experimental: as §1

IL-37 [7] = biological target: T5, IL-37; test: CDI HuProt native protein microarray
Experimental: as §1

IL-36b [8] = biological target: T6, IL-36b; test: CDI HuProt native protein microarray
Experimental: as §1

IL-36g [9] = biological target: T7, IL-36g; test: CDI HuProt native protein microarray
Experimental: as §1

IL-33 [10] = biological target: T8, IL-33; test: CDI HuProt native protein microarray
Experimental: as §1

[11] = biological target: T9, human interleukin-38 (IL-38); test: CDI HuProt native protein microarray, IL-1 family members
Experimental: as §1

IL-1α [12] = biological target: T1, IL-1α; test: as above
Experimental: as §1

IL-1β [13] = biological target: T10, IL-1β; test: as above
Experimental: as §1

IL-1Ra [14] = biological target: T11, IL-1Ra; test: as above
Experimental: as §1

IL-18 [15] = biological target: T2, IL-18; test: as above
Experimental: as §1

IL-36Ra [16] = biological target: T3, IL-36Ra; test: as above
Experimental: as §1

IL-36a [17] = biological target: T4, IL-36a; test: as above
Experimental: as §1

IL-37 [18] = biological target: T5, IL-37; test: as above
Experimental: as §1

IL-36b [19] = biological target: T6, IL-36b; test: as above
Experimental: as §1

IL-36g [20] = biological target: T7, IL-36g; test: as above
Experimental: as §1

IL-33 [21] = biological target: T8, IL-33; test: as above
Experimental: as §1

[22] = biological target: T9, human interleukin-38 (IL-38); test: SPR, IMM20130 captured on anti-human Fc CM5 chip, IL-38 as analyte, 25 C, 1:1 model
Experimental: Binding of IMM20130 to IL-38 (NovusBio, catalog number NBP2-22645) was quantified by surface plasmon resonance (SPR). Briefly, IMM20130 was diluted in SPR running buffer (10 mM HEPES, pH7.4, 150 mM NaCl, 0.0005% Tween-20, 0.2% bovine serum albumin) to final concentrations of 150 nM and 25 nM and captured at four different surface densities on an anti-human Fc coated CM5 sensor chip. Surface densities ranged from 600 to 3200 RU. IL-38 (NovusBio, catalog number NBP2-22645) was diluted in SPR running buffer to a concentration of 600 nM and a 3-fold dilution series was run across the four different IMM20130 density surfaces. Data were collected at 25° C. Data from all four surfaces were fitted to a 1:1 interaction model yielding the rate constants depicted in Table 2.

T11 sequence (P18510 26-177 limits assumed): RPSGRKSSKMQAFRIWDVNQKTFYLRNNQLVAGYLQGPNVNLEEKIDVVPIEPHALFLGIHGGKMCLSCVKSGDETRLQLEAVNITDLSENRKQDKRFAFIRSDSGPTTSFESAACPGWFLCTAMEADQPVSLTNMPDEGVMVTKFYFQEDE

Row | binding result (IL-1α [1]) | binding result (IL-1β [2]) | binding result (IL-1Ra [3]) | binding result (IL-18 [4]) | binding result (IL-36Ra [5]) | binding result (IL-36a [6]) | binding result (IL-37 [7]) | binding result (IL-36b [8]) | binding result (IL-36g [9]) | binding result (IL-33 [10]) | Z-score [11] | Z-score (IL-1α [12]) | Z-score (IL-1β [13]) | Z-score (IL-1Ra [14]) | Z-score (IL-18 [15]) | Z-score (IL-36Ra [16]) | Z-score (IL-36a [17]) | Z-score (IL-37 [18]) | Z-score (IL-36b [19]) | Z-score (IL-36g [20]) | Binder | other results
1 | no binding | no binding | no binding | no binding | no binding | no binding | no binding | no binding | no binding | no binding | 142 | -0.014 | -0.017 | 0.003 | -0.016 | -0.019 | 0.012 | -0.016 | -0.01 | -0.008 | CD1-M8 (antibody, V domains shown, Mouse monoclonal from a CD-1 mouse hybridoma) VH: EVQLQQSGPELVKPGASVKMSCKASGYTFTDYYIHWVKQSHGKGLEWIGYIFPNNGGNGYSQKFKGKATMTVDKSSSTAYMELRSLTSEDSAVYYCARGGYDAGFVYWGQGTLVTVSA VL: DIVMSQSPSSLAVSAGEKVTMSCKSSQSLFNSGARKNFLAWYQQKPGQSPKLLIYWASTRESGVPDRFTGSGSGTDFTLTISSVQAEDLAVYYCKQSYYLITFGAGTKLELK | Z-score (IL-33 [21]): -0.014
2 | – | – | – | – | – | – | – | – | – | – | – | – | – | – | – | – | – | – | – | – | IMM20130 (antibody, human IgG1, kappa, V domains shown, also called PR087-29B5 (parent hybridoma antibody)) VH: QVQLVQSGAEVKKPGASVKVSCKASGYSFINYGITWVRQVPGQGLEWMGWISAYNVKTKYAPKFQGRVNMNTDTSTRTAYMELRSLRSDDTAVYYCARDRDYDFWSGSAFDIWGQGTMVTVSS VL: EIVLTQSPGTLSLSPGERVTLSCRASQSISTNYLAWYQQKPGQAPSLLIYGASSRATGIPDRFSGSGSGTDFTLTISRLEPEDFAVYYCQQYGSSPPRTFGQGTKLEIKR | Kd [22]: 13.6 nM; kon [22]: 4980 M⁻¹ s⁻¹
3 | no binding | no binding | no binding | no binding | no binding | no binding | no binding | no binding | no binding | no binding | 34 | -0.147 | -0.143 | -0.166 | -0.132 | -0.034 | 0.033 | -0.113 | -0.087 | -0.143 | NZB-M8 (antibody, V domains shown, Mouse monoclonal from an NZB/w mouse hybridoma) VH: EVQLQQSGPELVKPGASVKISCKASGYSFTGYYMHWVKQSPEKSLEWIGVINPNTGGITYNQKFKAKATLNVDKSSSTAYMQLKSLTSEDSAVYYCARSMGVWGQGTLVTVSA VL: DIVMTQAAPSVSVTPGESVSISCRSSKSLLHSNGNTYLYWFLQRPGQSPQLLIYRMSNLASGVPDRFSGSGSGTAFTLRISRVEAEDVGVYYCMQYLEYPFTFGSGTKLEIK | Z-score (IL-33 [21]): -0.17
